Results taken from publication PMC6070508, “Structural basis for selective inhibition of immunoglobulin E-receptor interactions by an anti-IgE antibody” (Scientific Reports, 2018).
Values joined by “and” are separate entries in the source; they are usually repeats but may differ in a detail not shown here. Identical values can stand only once.

What was measured:
8D6 Fab = target: T1, 8D6 Fab; test: SPR; Biacore T200; 8D6 Fab amine-coupled to a CM5 chip; His-tagged IgE-Fc injected at 100 nM to 190 pM (2-fold dilutions) in HBS-P (10 mM HEPES pH 7.4, 150 mM NaCl, 0.005% surfactant P20), 30 uL/min; constants from low and intermediate concentrations; conditions: both partners purified
T1 construct: In SPR it was amine-coupled to a CM5 chip or injected as analyte; also called recombinant 8D6 Fab; anti-IgE antibody Fab (8D6)

derCD23 = target: T2, derCD23 (human); test: SPR; N-terminally His-tagged IgE-Fc captured with an anti-His-tag antibody (Biacore His Capture Kit); derCD23 injected at 10 to 0.156 uM; HBS-P with 5 mM CaCl2, 25 °C; conditions: both partners purified
T2 construct: human CD23 (FcεRII), soluble monomeric fragment called derCD23; also called soluble, monomeric CD23 construct; soluble fragment of CD23
T2 sequence (P06734 whole entry, looked up): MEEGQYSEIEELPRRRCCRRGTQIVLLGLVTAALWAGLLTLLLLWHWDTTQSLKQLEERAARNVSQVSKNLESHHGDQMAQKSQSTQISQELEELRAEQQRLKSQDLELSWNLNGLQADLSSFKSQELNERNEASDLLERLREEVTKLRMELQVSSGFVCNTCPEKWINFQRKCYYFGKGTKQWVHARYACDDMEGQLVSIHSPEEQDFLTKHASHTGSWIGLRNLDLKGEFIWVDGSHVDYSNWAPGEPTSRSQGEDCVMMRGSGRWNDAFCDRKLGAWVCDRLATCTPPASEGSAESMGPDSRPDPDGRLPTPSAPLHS

T1 sequence (heavy, as listed by the source, chain 1 of 2): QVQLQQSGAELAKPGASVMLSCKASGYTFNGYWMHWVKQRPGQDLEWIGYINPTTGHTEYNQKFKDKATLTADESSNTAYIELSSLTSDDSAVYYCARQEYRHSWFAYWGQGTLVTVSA
T1 sequence (light, as listed by the source, chain 2 of 2): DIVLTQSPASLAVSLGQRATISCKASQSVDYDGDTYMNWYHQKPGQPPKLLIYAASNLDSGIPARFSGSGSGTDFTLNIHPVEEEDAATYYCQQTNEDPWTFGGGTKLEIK

B1: His-tagged IgE-Fc (domain or fragment)
chain: VASRDFTPPTVKILQSSCDGGGHFPPTIQLLCLVSGYTPGTIQITWLEDGQVMDVDLSTASTTQEGELASTQSELTLSQKHWLSDRTYTCQVTYQGHTFEDSTKKCADSNPRGVSAYLSRPSPFDLFIRKSPTITCLVVDLAPSKGTVQLTWSRASGKPVNHSTRKEEKQRNGTLTVTSTLPVGTRDWIEGETYQCRVTHPHLPRALMRSTTKTSGPRAAPEVYAFATPEWPGSRDKRTLACLIQNFMPEDISVQWLHNEVQLPDARHSTTQPRKTKGSGFFVFSRLEVTRAEWEQKDEFICRAVHEAASPSQTVQRAVSVNPGK
modifications: disulfide-linked homodimer; N-glycosylated at Asn394 (high-mannose); N-terminal 6xHis/Xpress tag omitted; C225A, N265Q and N371Q taken as already in the deposited entity; C-terminal end taken from …
B1 showed a Kd (8D6 Fab) of ~0.02 nM, a koff (8D6 Fab) of 8e-05 s⁻¹ and a kon (8D6 Fab) of 5e+06 M⁻¹ s⁻¹. The Kd (derCD23) was 1800 nM and 1700 nM and 1600 nM.
